Results published in patent publication US20190330313A1 (HANX BIOPHARMACEUTICS, published 2019).

What was measured:
PD-1-hIgGFc antigen [1] = biological target: T1, PD-1-hIgGFc antigen (human, UniProt Q15116 25-167, limits assumed); experiment: competitive ELISA, PD-1-hIgGFc coated, competitor PDL2-his tag 0.5 µg/ml
T1 construct: not shown: human IgG Fc (hIgGFc)
Protocol: A 96-well ELISA plate was coated with PD-1-hIgGFc antigen in a concentration of 1.0 μg/ml (100 μl per well) by incubation at 4° C. overnight.
After the 96-well ELISA plate was washed with the PBST buffer for five times and gently patted to dryness, HRP-conjugated monoclonal mouse anti-his tag as a secondary antibody in 1:750 dilution (50 μl per well) was added for incubation at 37° C. for 1 hour.

PD-1-hIgGFc antigen [2] = biological target: T1, PD-1-hIgGFc antigen; experiment: competitive ELISA, PD-1-hIgGFc coated, competitor PDL1-mIgG2aFc 0.3 µg/ml
Protocol: A 96-well ELISA plate was coated with PD-1-hIgGFc antigen in a concentration of 0.5 μg/ml (50 μl per well) by incubation at 4° C. overnight.

PD-1-his antigen = biological target: T2, PD-1-his antigen (UniProt Q15116 25-167, limits assumed); experiment: ELISA, PD-1-his coated at 0.25 µg/ml
T2 construct: not shown: his tag
Protocol: An ELISA plate was coated with PD-1-his antigen in a concentration of 0.25 μg/ml (100 μl per well) by incubation at 4° C. overnight.
The ELISA plate coated with the PD-1-his antigen was blocked with 1% BSA in the PBS buffer at 37° C. for 2 hours and washed with 1×PBST buffer containing 1% Tween-20 for three times, with gently patting to dryness.

T1 sequence (Q15116 25-167 limits assumed): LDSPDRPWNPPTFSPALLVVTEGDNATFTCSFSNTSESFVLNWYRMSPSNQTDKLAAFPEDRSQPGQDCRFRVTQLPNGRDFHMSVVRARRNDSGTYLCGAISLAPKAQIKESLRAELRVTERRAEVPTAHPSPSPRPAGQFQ
T2 sequence (Q15116 25-167 limits assumed): as above

- EC50 (PD-1-hIgGFc antigen [1]): 1.83 nM
- EC50 (PD-1-hIgGFc antigen [2]): 0.474 nM
- EC50 (PD-1-his antigen): 0.04 nM
B1: humanized H8L2 antibody (IgG-like antibody H8L2 against PD-1) (antibody)
heavy: EVQLVQSGGGLVQPGGSLKLSCAASGFTFSSYGMSWVRQAPGKGLDWVATISGGGRDTYYPDSVKGRFTISRDNSKNNLYLQMNSLRAEDTALYYCARQKGEAWFAYWGQGTLVTVSSASTKGPSVFPLAPCSRSTSESTAALGCLVKDYFPEPVTVSWNSGALTSGVHTFPAVLQSSGLYSLSSVVTVPSSSLGTKTYTCNVDHKPSNTKVDKRVESKYGPPCPPCPAPEFLGGPSVFLFPPKPKDTLMITRTPEVTCVVVDVSQEDPEVQFNWYVDGVEVHNAKTKPREEQFNSTYRVVSVLTPLHQDWLNGKEYKCKVSNKGLPSSIEKTISKAKGQPREPQVYTLPPSQEEMTKNQVSLTCLVKGFYPSDIAVEWESNGQPENNYKTTPPVLDSDGSFFLYSRLTVDKSRWQEGNVFSCSVMHEALHAHYTQKSLSLSLGK
light: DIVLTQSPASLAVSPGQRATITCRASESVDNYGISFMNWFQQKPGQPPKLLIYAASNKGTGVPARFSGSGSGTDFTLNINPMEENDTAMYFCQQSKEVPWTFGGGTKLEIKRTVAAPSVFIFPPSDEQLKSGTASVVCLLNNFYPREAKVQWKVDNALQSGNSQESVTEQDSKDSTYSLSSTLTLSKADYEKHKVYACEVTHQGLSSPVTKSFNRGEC
notes: Expressed in 293 cells and purified on protein A; also called 18A10 H8L2
